Four molecules from patent publication US20230050773A1 (AstraZeneca / MedImmune, published 2023) can be followed below.

The labels stand for the following.
B1: NB0937 (antibody, V domains shown)
VH: EVQLVESGGGLVQPGGSLRLSCAASGFSFSTDYWMSWVRQAPGKGLEWVSSIYVGTSGDTYYADSVKGRFTISRDNSKNTLYLQMDSLRAEDTAIYYCAGADNPYDYFNLWGQGTLVTVS
VL: DIQMTQSPSSVSASVGDRVTITCRASETISGYLAWYQQKPGKAPKLLIYRASSLESGVPSRFSGSGSGTEFTLTISSLQPDDFATYYCQQGYSYSDTDNVFGGGTKVEIK
notes: Humanized variant of B7 by CDR grafting; also called Clone 937
B2: NB0938 (antibody, V domains shown)
VH: B1 VH
VL: B1 VL with V11L, A34N, E55Q, E70D, D81E
notes: Humanized variant of B7 by CDR grafting; also called Clone 938
B3: NB0919 (antibody, V domains shown)
VH: QVQLQESGPGLVKPSDTLSLTCTVSGFSFSTDYWWSWIRQPPGKGLEWIGYIYVGTSGDTYYNPSLKSRVTISVDTSKNQFSLKLSSVTAADTAVYYCAGADNPYDYFNLWGQGTLVTVSS
VL: B1 VL with V11L, A34N, E55Q, E70D, D81E
notes: Humanized variant of B7 by CDR grafting; also called Clone 919
B4: NB0920 (antibody, V domains shown)
VH: B3 VH
VL: B1 VL with V11L, A43V, S53T, E55Q, E70D, D81E, F83V
notes: Humanized variant of B7 by CDR grafting; also called Clone 920

Residue numbers refer to the chain shown, from its start.

For the first assay, the target named is T1, recombinant human LIF (Leukemia Inhibitory Factor) (human, UniProt P15018 23-202).
T1 construct: also called biotinylated recombinant human LIF
T1 sequence (P15018 23-202 limits assumed, form in doubt): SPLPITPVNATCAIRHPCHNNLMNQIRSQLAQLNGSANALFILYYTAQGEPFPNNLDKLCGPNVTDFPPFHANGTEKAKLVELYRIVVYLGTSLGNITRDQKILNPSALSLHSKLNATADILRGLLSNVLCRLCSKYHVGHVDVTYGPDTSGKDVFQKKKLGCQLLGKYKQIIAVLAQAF
Briefly: LIF:LIFR blocking ELISA, coated human LIFR, biotinylated human LIF premixed with antibody. How it is done:
Recombinant human LIFR was coated on maxisorp plates overnight at 4 C. The next day, plates were blocked with casein blocking buffer for 1 hr at 37 C. During this period, titrations of each antibody were mixed with biotinylated recombinant human LIF. Following blocking, the antibody/antigen premix was added to the plates and allowed to incubate for 1 hr at RT. Plates were then washed with 4×PBST and an HRP conjugated avidin secondary reagent was added for 30 min at room temperature. Plates were washed again with 4×PBST and then developed using TMB substrate and 1M HCl.
(In an ELISA, binding on a coated surface is turned into a signal by an enzyme label.)
As a reminder, the IC50 is the point on the concentration scale where inhibition reaches its midpoint. For the molecule B1, the IC50 was 16.6 nM.

With B2, the IC50 is 24.4 nM.

A further assay concerns the target T1, recombinant human LIF (Leukemia …). Nature of the assay: cell-based or functional assay.
For the molecule B3, the “pSTAT3 inhibition assay IC50 (nM)” value turned out to be 52.7 nM.

On to B1, for which the “pSTAT3 inhibition assay IC50 (nM)” value was 7.22 nM.

B2: the “pSTAT3 inhibition assay IC50 (nM)” value was determined as 11 nM.

As for B4, the “pSTAT3 inhibition assay IC50 (nM)” value amounted to 38.7 nM.

Another assay shares this target. Nature of the assay: BLI (Octet), antibody on anti-human Fc biosensors, human LIF in solution. On the procedure: Affinities were determined using biolayer interferometry on the Octet platform. Anti-human Fc biosensors were used to load chimeric B7 and humanized variants, and titrations of recombinant human LIF (200 nM→0 nM) were associated for 180 seconds followed by a 300 second dissociation step. Affinity measurements are recorded in Table 3.
For orientation: Kd means a measure of binding affinity in units of concentration. For the molecule B3, the Kd is 19.6 nM.

Take B1: the dissociation constant (Kd) turned out to be 5.02 nM.

With B2, the Kd is 10.6 nM.

B4: the Kd worked out at 9.97 nM.

For a further assay the target is unchanged. Nature of the assay: ELISA, coated recombinant human LIF, anti-human Fc HRP detection. How it is done:
Recombinant human LIF was coated on maxisorp plates overnight at 4° C. The next day, plates were blocked with casein blocking buffer for 1 hour at 37° C. Titrations of each antibody were added to the plates and allowed to bind for 1 hour at room temperature. Plates were washed 4× with PBST followed by incubation with an HRP conjugated anti-human Fc secondary for 30 minutes at RT. Plates were then washed again with 4×PBST and then developed using TMB substrate and 1M HCl.
One may read the EC50 as the midpoint of the concentration-response curve. Regarding B3, the EC50 worked out at 0.17 nM.

Regarding B1, the EC50 stood at 0.08 nM.

Turning to B2, the 50% effective concentration (EC50) amounted to 0.13 nM.

For the molecule B4, the concentration giving a half-maximal response (EC50) is 0.12 nM.
